Results taken from the supplement of paper PMC10567573.

B1: ESRRA (parent)
chain: SLPLQDELAFAEDLVLDEEGARAA
B2: HESX1 (parent)
chain: QKKDCVPLMKPHRPWADTCSSSGK

Variants of: B1
Test: protein stability index of a GFP-peptide fusion (GPS, HEK-293T) (PSI 1-6); higher = more stable
Settings: c terminus: a fixed tail appended
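Also: lentivirally expressed fusions sorted by FACS into six bins by GFP to DsRed ratio, PSI derived from sequencing read proportions per bin multiplied by bin number.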

Variant	protein stability index
MLPLQDELAFAEDLVLDEEGARAA [S1M]	2.66
DLPLQDELAFAEDLVLDEEGARAA [S1D]	3.07
RLPLQDELAFAEDLVLDEEGARAA [S1R]	3.28
NLPLQDELAFAEDLVLDEEGARAA [S1N]	2.81
QLPLQDELAFAEDLVLDEEGARAA [S1Q]	3.09
KLPLQDELAFAEDLVLDEEGARAA [S1K]	3.09
PLPLQDELAFAEDLVLDEEGARAA [S1P]	3.54
GLPLQDELAFAEDLVLDEEGARAA [S1G]	2.81
YLPLQDELAFAEDLVLDEEGARAA [S1Y]	2.78
HLPLQDELAFAEDLVLDEEGARAA [S1H]	2.89
ALPLQDELAFAEDLVLDEEGARAA [S1A]	3.94
FLPLQDELAFAEDLVLDEEGARAA [S1F]	2.48
VLPLQDELAFAEDLVLDEEGARAA [S1V]	2.89
WLPLQDELAFAEDLVLDEEGARAA [S1W]	2.73
TLPLQDELAFAEDLVLDEEGARAA [S1T]	3.01
ILPLQDELAFAEDLVLDEEGARAA [S1I]	3.03
LLPLQDELAFAEDLVLDEEGARAA [S1L]	2.26
ELPLQDELAFAEDLVLDEEGARAA [S1E]	2.94
CLPLQDELAFAEDLVLDEEGARAA [S1C]	2.93
SIPLQDELAFAEDLVLDEEGARAA [L2I]	2.78
SFPLQDELAFAEDLVLDEEGARAA [L2F]	3.06
SAPLQDELAFAEDLVLDEEGARAA [L2A]	4.07
SKPLQDELAFAEDLVLDEEGARAA [L2K]	4.4
SHPLQDELAFAEDLVLDEEGARAA [L2H]	2.78
SCPLQDELAFAEDLVLDEEGARAA [L2C]	2.32
SGPLQDELAFAEDLVLDEEGARAA [L2G]	4.81
SDPLQDELAFAEDLVLDEEGARAA [L2D]	5.55
SEPLQDELAFAEDLVLDEEGARAA [L2E]	5.29

Variants of: B2
Test: as above
Settings: c terminus: a fixed tail appended

Variant	protein stability index
QKKDCVPLMKPHRPWADTCSRSGK [S21R]	2.56
QKKDCVPLMKPHRPWADTCSWSGK [S21W]	2.79
QKKDCVPLMKPHRPWADTCSMSGK [S21M]	2.58
QKKDCVPLMKPHRPWADTCSNSGK [S21N]	3.4
QKKDCVPLMKPHRPWADTCSVSGK [S21V]	3.15
QKKDCVPLMKPHRPWADTCSCSGK [S21C]	2.92
QKKDCVPLMKPHRPWADTCSTSGK [S21T]	3.38
QKKDCVPLMKPHRPWADTCSYSGK [S21Y]	2.32
QKKDCVPLMKPHRPWADTCSQSGK [S21Q]	3.75
QKKDCVPLMKPHRPWADTCSASGK [S21A]	3.61
QKKDCVPLMKPHRPWADTCSHSGK [S21H]	2.88
QKKDCVPLMKPHRPWADTCSISGK [S21I]	2.69
QKKDCVPLMKPHRPWADTCSESGK [S21E]	3.86
QKKDCVPLMKPHRPWADTCSPSGK [S21P]	3.58
QKKDCVPLMKPHRPWADTCSKSGK [S21K]	3.68
QKKDCVPLMKPHRPWADTCSDSGK [S21D]	3.24
QKKDCVPLMKPHRPWADTCSFSGK [S21F]	2.44
QKKDCVPLMKPHRPWADTCSLSGK [S21L]	3.18
QKKDCVPLMKPHRPWADTCSGSGK [S21G]	3.92
QKKDCVPLMKPHRPWADTCSSSGG [K24G]	3.62
QKKDCVPLMKPHRPWADTCSSSGI [K24I]	2.51
QKKDCVPLMKPHRPWADTCSSSGT [K24T]	2.85
QKKDCVPLMKPHRPWADTCSSSGA [K24A]	3.7

Variant	protein stability index
QKKDCVPLMKPHRPWADTCSSSGF [K24F]	2.56
QKKDCVPLMKPHRPWADTCSSSGS [K24S]	2.23
QKKDCVPLMKPHRPWADTCSSSGY [K24Y]	1.98
QKKDCVPLMKPHRPWADTCSSSGV [K24V]	2.55
QKKDCVPLMKPHRPWADTCSSSGD [K24D]	3.22
QKKDCVPLMKPHRPWADTCSSSGL [K24L]	1.78
QKKDCVPLMKPHRPWADTCSSSGQ [K24Q]	3.57
QKKDCVPLMKPHRPWADTCSSSGP [K24P]	3.18
QKKDCVPLMKPHRPWADTCSSSGC [K24C]	3.33
QKKDCVPLMKPHRPWADTCSSSGE [K24E]	2.28
QKKDCVPLMKPHRPWADTCSSSGN [K24N]	2.97
QKKDCVPLMKPHRPWADTCSSSGW [K24W]	1.98
QKKDCVPLMKPHRPWADTCSSSGH [K24H]	2.46
QKKDCVPLMKPHRPWADTCSSSGM [K24M]	2.05
QKKDCVPLMKPHRPWADTCSSSDK [G23D]	2.46
QKKDCVPLMKPHRPWADTCSSSRK [G23R]	3.5
QKKDCVPLMKPHRPWADTCSSSNK [G23N]	3.13
QKKDCVPLMKPHRPWADTCSSSYK [G23Y]	3.15
QKKDCVPLMKPHRPWADTCSSSHK [G23H]	2.62
QKKDCVPLMKPHRPWADTCSSSKK [G23K]	4.08
QKKDCVPLMKPHRPWADTCSSSMK [G23M]	3.08
QKKDCVPLMKPHRPWADTCSSSFK [G23F]	1.61
QKKDCVPLMKPHRPWADTCSSSPK [G23P]	3.81

Variant	protein stability index
QKKDCVPLMKPHRPWADTCSSSSK [G23S]	3.32
QKKDCVPLMKPHRPWADTCSSSAK [G23A]	3.69
QKKDCVPLMKPHRPWADTCSSSLK [G23L]	3.46
QKKDCVPLMKPHRPWADTCSSSWK [G23W]	1.6
QKKDCVPLMKPHRPWADTCSSSIK [G23I]	2.76
QKKDCVPLMKPHRPWADTCSSSVK [G23V]	2.33
QKKDCVPLMKPHRPWADTCSSSCK [G23C]	2.45
QKKDCVPLMKPHRPWADTPSSSGK [C19P]	4.37
QKKDCVPLMKPHRPWADTISSSGK [C19I]	2.45
QKKDCVPLMKPHRPWADTESSSGK [C19E]	4.32
QKKDCVPLMKPHRPWADTSSSSGK [C19S]	4.36
QKKDCVPLMKPHRPWADTRSSSGK [C19R]	4.08
QKKDCVPLMKPHRPWADTVSSSGK [C19V]	2.17
QKKDCVPLMKPHRPWADTMSSSGK [C19M]	4.19
QKKDCVPLMKPHRPWADTTSSSGK [C19T]	3.82
QKKDCVPLMKPHRPWADTASSSGK [C19A]	4.07
QKKDCVPLMKPHRPWADTNSSSGK [C19N]	4.83
QKKDCVPLMKPHRPWADTFSSSGK [C19F]	2.66
QKKDCVPLMKPHRPWADTHSSSGK [C19H]	3.77
QKKDCVPLMKPHRPWADTKSSSGK [C19K]	4.47
QKKDCVPLMKPHRPWADTQSSSGK [C19Q]	4.03
QKKDCVPLMKPHRPWADTLSSSGK [C19L]	3.13
QKKDCVPLMKPHRPWADTYSSSGK [C19Y]	3.25

Variant	protein stability index
QKKDCVPLMKPHRPWADTDSSSGK [C19D]	3.9
QKKDCVPLMKPHRPWADTWSSSGK [C19W]	2.47
QKKDCVPLMKPHRPWADTCSSDGK [S22D]	2.61
QKKDCVPLMKPHRPWADTCSSTGK [S22T]	3.08
QKKDCVPLMKPHRPWADTCSSKGK [S22K]	3.69
QKKDCVPLMKPHRPWADTCSSIGK [S22I]	3.13
QKKDCVPLMKPHRPWADTCSSNGK [S22N]	2.89
QKKDCVPLMKPHRPWADTCSSVGK [S22V]	2.78
QKKDCVPLMKPHRPWADTCSSFGK [S22F]	2.74
QKKDCVPLMKPHRPWADTCSSGGK [S22G]	2.23
QKKDCVPLMKPHRPWADTCSSCGK [S22C]	2.94
QKKDCVPLMKPHRPWADTCSSRGK [S22R]	3.3
QKKDCVPLMKPHRPWADTCSSMGK [S22M]	3.43
QKKDCVPLMKPHRPWADTCSSWGK [S22W]	2.12
QKKDCVPLMKPHRPWADTCSSPGK [S22P]	3.68
QKKDCVPLMKPHRPWADTCSSEGK [S22E]	3.13
QKKDCVPLMKPHRPWADTCSSYGK [S22Y]	3.29
QKKDCVPLMKPHRPWADTCSSAGK [S22A]	2.95
QKKDCVPLMKPHRPWADTCSSHGK [S22H]	3.96
QKKDCVPLMKPHRPWMDTCSSSGK [A16M]	4.02
QKKDCVPLMKPHRPWWDTCSSSGK [A16W]	3.39
QKKDCVPLMKPHRPWTDTCSSSGK [A16T]	3.76
QKKDCVPLMKPHRPWYDTCSSSGK [A16Y]	3.49

Variant	protein stability index
QKKDCVPLMKPHRPWIDTCSSSGK [A16I]	3.34
QKKDCVPLMKPHRPWRDTCSSSGK [A16R]	3.45
QKKDCVPLMKPHRPWLDTCSSSGK [A16L]	3.75
QKKDCVPLMKPHRPWSDTCSSSGK [A16S]	3.72
QKKDCVPLMKPHRPWKDTCSSSGK [A16K]	3.96
QKKDCVPLMKPHRPWQDTCSSSGK [A16Q]	4
QKKDCVPLMKPHRPWVDTCSSSGK [A16V]	2.46
QKKDCVPLMKPHRPWGDTCSSSGK [A16G]	3.57
QKKDCVPLMKPHRPWFDTCSSSGK [A16F]	3.44
QKKDCVPLMKPHRPWNDTCSSSGK [A16N]	4.2
QKKDCVPLMKPHRPWPDTCSSSGK [A16P]	3.96
QKKDCVPLMKPHRPWHDTCSSSGK [A16H]	3.98
QKKDCVPLMKPHRPWAMTCSSSGK [D17M]	3.36
QKKDCVPLMKPHRPWATTCSSSGK [D17T]	3.06
QKKDCVPLMKPHRPWAKTCSSSGK [D17K]	3.91
QKKDCVPLMKPHRPWAQTCSSSGK [D17Q]	3.89
QKKDCVPLMKPHRPWAETCSSSGK [D17E]	3.53
QKKDCVPLMKPHRPWAVTCSSSGK [D17V]	2.91
QKKDCVPLMKPHRPWACTCSSSGK [D17C]	2.81
QKKDCVPLMKPHRPWAFTCSSSGK [D17F]	3.07
QKKDCVPLMKPHRPWANTCSSSGK [D17N]	3.22
QKKDCVPLMKPHRPWARTCSSSGK [D17R]	3.46
QKKDCVPLMKPHRPWAWTCSSSGK [D17W]	2.78

Variant	protein stability index
QKKDCVPLMKPHRPWAITCSSSGK [D17I]	2.57
QKKDCVPLMKPHRPWAATCSSSGK [D17A]	3.48
QKKDCVPLMKPHRPWAYTCSSSGK [D17Y]	3.17
QKKDCVPLMKPHRPWAGTCSSSGK [D17G]	3.45
QKKDCVPLMKPHRPWASTCSSSGK [D17S]	3.74
QKKDCVPLMKPHRPWAPTCSSSGK [D17P]	3.6
QKKDCVPLMKPHRPWAHTCSSSGK [D17H]	3.71
QKKDCVPLMKPHRPWADHCSSSGK [T18H]	2.13
QKKDCVPLMKPHRPWADQCSSSGK [T18Q]	3.36
QKKDCVPLMKPHRPWADKCSSSGK [T18K]	4.01
QKKDCVPLMKPHRPWADVCSSSGK [T18V]	1.9
QKKDCVPLMKPHRPWADDCSSSGK [T18D]	3.96
QKKDCVPLMKPHRPWADGCSSSGK [T18G]	3.69
QKKDCVPLMKPHRPWADRCSSSGK [T18R]	2.69
QKKDCVPLMKPHRPWADCCSSSGK [T18C]	3.15
QKKDCVPLMKPHRPWADFCSSSGK [T18F]	2.35
QKKDCVPLMKPHRPWADMCSSSGK [T18M]	2.44
QKKDCVPLMKPHRPWADLCSSSGK [T18L]	2.24
QKKDCVPLMKPHRPWADACSSSGK [T18A]	3.41
QKKDCVPLMKPHRPWADECSSSGK [T18E]	4.29
QKKDCVPLMKPHRPWADSCSSSGK [T18S]	3.28
QKKDCVPLMKPHRPWADICSSSGK [T18I]	1.57
QKKDCVPLMKPHRPWADWCSSSGK [T18W]	2.94

Variant	protein stability index
QKKDCVPLMKPHRPWADNCSSSGK [T18N]	3.75
QKKDCVPLMKPHRPWADYCSSSGK [T18Y]	2.25
QKKDCVPLMKPHRPWADPCSSSGK [T18P]	4.02
QKKDCVPLMKPHRPWADTCWSSGK [S20W]	2.74
QKKDCVPLMKPHRPWADTCRSSGK [S20R]	3
QKKDCVPLMKPHRPWADTCTSSGK [S20T]	2.96
QKKDCVPLMKPHRPWADTCDSSGK [S20D]	3.32
QKKDCVPLMKPHRPWADTCPSSGK [S20P]	3.79
QKKDCVPLMKPHRPWADTCHSSGK [S20H]	3.24
QKKDCVPLMKPHRPWADTCASSGK [S20A]	3.71
QKKDCVPLMKPHRPWADTCMSSGK [S20M]	3.18
QKKDCVPLMKPHRPWADTCCSSGK [S20C]	3.03
QKKDCVPLMKPHRPWADTCFSSGK [S20F]	2.3
QKKDCVPLMKPHRPWADTCESSGK [S20E]	3.47
QKKDCVPLMKPHRPWADTCGSSGK [S20G]	2.38
QKKDCVPLMKPHRPWADTCVSSGK [S20V]	3.84
QKKDCVPLMKPHRPWADTCQSSGK [S20Q]	3.05
QKKDCVPLMKPHRPWADTCISSGK [S20I]	2.98
QKKDCVPLMKPHRPWADTCKSSGK [S20K]	3.83
QKKDCVPLMKPHRPWADTCNSSGK [S20N]	3.33
QKKDCVPLMKPHRPWADTCYSSGK [S20Y]	2.31
QKKDCVPLMKPHRPWADTCLSSGK [S20L]	2.61
